The labels stand for the following.
B1: Nfasc 1198 to 1214 WT [not stated] / AnkG ANK repeats (residues 38-855, R1-24) [not stated] (parent)
chain 1: GEGQFNEDGSFIGQYTV
chain 2: KSDANASYLRAARAGHLEKALDYIKNGVDVNICNQNGLNALHLASKEGHVEVVSELLQREANVDAATKKGNTALHIASLAGQAEVVKVLVTNGANVNAQSQNGFTPLYMAAQENHLEVVRFLLDNGASQSLATEDGFTPLAVALQQGHDQVVSLLLENDTKGKVRLPALHIAARKDDTKAAALLLQNDTNADIESKMVVNRATESGFTPLHIAAHYGNINVATLLLNRAAAVDFTARNDITPLHVASKRGNANMVKLLLDRGAKIDAKTRDGLTPLHCGARSGHEQVVEMLLDRAAPILSKTKNGLSPLHMATQGDHLNCVQLLLQHNVPVDDVTNDYLTALHVAAHCGHYKVAKVLLDKKANPNAKALNGFTPLHIACKKNRIRVMELLLKHGASIQAVTESGLTPIHVAAFMGHVNIVSQLMHHGASPNTTNVRGETALHMAARSGQAEVVRYLVQDGAQVEAKAKDDQTPLHISARLGKADIVQQLLQQGASPNAATTSGYTPLHLSAREGHEDVAAFLLDHGASLSITTKKGFTPLHVAAKYGKLEVASLLLQKSASPDAAGKSGLTPLHVAAHYDNQKVALLLLDQGASPHAAAKNGYTPLHIAAKKNQMDIATSLLEYGADANAVTRQGIASVHLAAQEGHVDMVSLLLSRNANVNLSNKSGLTPLHLAAQEDRVNVAEVLVNQGAHVDAQTKMGYTPLHVGCHYGNIKIVNFLLQHSAKVNAKTKNGYTPLHQAAQQGHTHIINVLLQNNASPNELTVNGNTALAIARRLGYISVVDTLKVVTEEIMTTTTITEKHKMNVPETMNEVLDMS
B2: AnkG ANK repeats (residues 38-855, R1-24) [not stated] / Nfasc ankyrin-binding domain (ABD, residues 1187-1214) [not stated] (parent)
chain 1: SDDSLVDYGEGGEGQFNEDGSFIGQYTV
chain 2: B1 chain 2

One assay covers variants of B1. Kind of assay: ITC. The conditions noted are these: with AnkG ANK repeats (residues 38-855, R1-24); parent: 1.
For the variant chain 1 GEGQFNEKGSFIGQYTV [chain 1 D8K], the ratio to parent was determined as 23.
Same read-out and setting: the value for chain 1 GEGQFNEAGSFIGQYTV [chain 1 D8A] was 4.
Same read-out and setting: in the case of chain 1 GEGQFAEDGSFIGQYTV [chain 1 N6A] it was 1; in that of chain 1 GEGQFNEDGSFIGQYAV [chain 1 T16A], 1; in that of chain 1 GEGQFNEDGSFQGQYTV [chain 1 I12Q], 3.
Same read-out and setting: the value for chain 1 GEGQFNEDGSQIGQYTV [chain 1 F11Q] was 4.
As for chain 1 GEGQFNEDGAFIGQYTV [chain 1 S10A], the ratio to parent was determined as 4.

The variants in a further assay derive from B2. In words: ITC. The conditions noted are these: with Nfasc ankyrin-binding domain (ABD, residues 1187-1214); parent: 1.
Turning to chain 2 R281A Q314A, the ratio to parent is 3.
The same measure, in the same setting: the value for chain 2 V245Q was 6; that for chain 2 I240Q L273Q was 14; that for chain 2 M311Q was 8.
On to chain 2 T302A N304A, for which the ratio to parent is 11.
Still for that read-out and setting: the value for chain 2 H347A was 8.
